Patent US20150031612A1 (YALE UNIVERSITY, published 2015)
Bridge positions count the residues as written; N and C are the ends. Square brackets hold non-standard residues; d marks the D form. Ends that are not written are not given here. S5 = C=CCCC[C@](C)(N)C(=O)O

B1: ^BT1^S (biotinylated analog of T1^S) (peptide)
peptide: VRKRT[S5]RRL[S5]QERELVE
modifications: staple 6-10; also: biotinylated, site not given here
notes: Stapled form of T1, biotinylated for the pull-down

Molecular target: T1, native, full length, EGFR (wtEGFR) (UniProt P00533 25-1210, limits assumed)
T1 construct: whole, on cells; The pull-down used cell lysates, not intact cells; the residue numbers used (L858R, T790M) fit human EGFR; also called wild type EGFR; Epidermal Growth Factor Receptor
Test: streptavidin-bead pull-down from lysates of wtEGFR-transfected CHO-K1 cells, anti-EGFR immunoblot

Binder | binding result
B1 | no binding (tested: 25 µM)
VRKRTLRRLLQERELVE (also: biotinylated, site not given here) [^BJM-WT (biotinylated analog of JM-WT)] | no binding (tested: 25 µM)
